Laboratory results reported in the supplement of paper PMC9112550, “Optimization of the antimicrobial peptide Bac7 by deep mutational scanning” (BMC Biology, 2022).

system: Escherichia coli TOP10; assay: shrunken log2 fold change of peptide-encoding DNA abundance (4.5 h post-induction vs induction); higher = less antimicrobial activity (less host growth inhibition); conditions: time post-induction: 4.5 h; library: site-saturation at positions 5, 18, 19, 20
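Further: peptides expressed intracellularly from a pBAD plasmid library in pooled LB shake-flask culture, induced with 0.3% L-arabinose, DNA abundance read by NGS, three biological replicates, DESeq2 with apeglm shrinkage.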

| Sequence | shrunken log2 fold change |
| --- | --- |
| RRIRERPPRLPRPRPRPNRWPRP | 0.0283 |
| RRIRERPPRLPRPRPRPPSSPRP | 0.0527 |
| RRIRGRPPRLPRPRPRPEHDPRP | 0.835 |
| RRIRQRPPRLPRPRPRPLGPPRP | 0.23 |
| RRIRCRPPRLPRPRPRPLWTPRP | -0.00711 |
| RRIRGRPPRLPRPRPRPDWIPRP | 0.243 |
| RRIRGRPPRLPRPRPRPNRNPRP | 0.00949 |
| RRIRSRPPRLPRPRPRPYYWPRP | -0.00332 |
| RRIRWRPPRLPRPRPRPAPFPRP | 0.0259 |
| RRIRIRPPRLPRPRPRPDEIPRP | 0.1 |
| RRIRVRPPRLPRPRPRPGHPPRP | 0.146 |
| RRIRARPPRLPRPRPRPNEEPRP | 0.276 |
| RRIRKRPPRLPRPRPRPAIIPRP | -0.0297 |
| RRIRKRPPRLPRPRPRPFPDPRP | -0.112 |
| RRIRFRPPRLPRPRPRPVLNPRP | -0.282 |
| RRIRTRPPRLPRPRPRPETHPRP | 0.179 |
| RRIRIRPPRLPRPRPRPYYAPRP | -0.949 |
| RRIRSRPPRLPRPRPRPLVPPRP | -0.0319 |
| RRIRKRPPRLPRPRPRPSPSPRP | 0.452 |
| RRIRRRPPRLPRPRPRPPQQPRP | 0.951 |

| Sequence | shrunken log2 fold change |
| --- | --- |
| RRIRFRPPRLPRPRPRPNGQPRP | -0.0712 |
| RRIRHRPPRLPRPRPRPDQEPRP | -0.01 |
| RRIRTRPPRLPRPRPRPMGSPRP | -0.0908 |
| RRIRFRPPRLPRPRPRPEGMPRP | -0.0976 |
| RRIRQRPPRLPRPRPRPRRYPRP | 0.112 |
| RRIRNRPPRLPRPRPRPDQPPRP | 0.00646 |
| RRIRTRPPRLPRPRPRPIYLPRP | -0.224 |
| RRIRVRPPRLPRPRPRPWCCPRP | -0.203 |
| RRIRFRPPRLPRPRPRPVSFPRP | -0.414 |
| RRIRYRPPRLPRPRPRPTNDPRP | -0.404 |
| RRIRSRPPRLPRPRPRPAEEPRP | 0.164 |
| RRIRHRPPRLPRPRPRPGIWPRP | 0.139 |
| RRIRQRPPRLPRPRPRPEIPPRP | -0.0704 |
| RRIRTRPPRLPRPRPRPVDLPRP | -0.0153 |
| RRIRQRPPRLPRPRPRPCEQPRP | -0.105 |
| RRIRQRPPRLPRPRPRPTYTPRP | -0.346 |
| RRIRPRPPRLPRPRPRPQHNPRP | -0.536 |
| RRIRQRPPRLPRPRPRPPISPRP | -0.187 |
| RRIRYRPPRLPRPRPRPAGMPRP | -0.0428 |
| RRIRWRPPRLPRPRPRPALSPRP | -0.0314 |

| Sequence | shrunken log2 fold change |
| --- | --- |
| RRIRARPPRLPRPRPRPFWVPRP | -0.0841 |
| RRIRNRPPRLPRPRPRPLPGPRP | 0.143 |
| RRIRCRPPRLPRPRPRPVCHPRP | -0.294 |
| RRIRQRPPRLPRPRPRPCPWPRP | 0.0978 |
| RRIRSRPPRLPRPRPRPECLPRP | 0.18 |
| RRIRMRPPRLPRPRPRPPCMPRP | 0.181 |
| RRIRDRPPRLPRPRPRPICCPRP | 0.037 |
| RRIRYRPPRLPRPRPRPDGVPRP | -0.0741 |
| RRIRYRPPRLPRPRPRPDGDPRP | 0.00902 |
| RRIRWRPPRLPRPRPRPCCCPRP | 0.129 |
| RRIRFRPPRLPRPRPRPEFQPRP | 0.0542 |
| RRIRFRPPRLPRPRPRPTSKPRP | -0.191 |
| RRIRVRPPRLPRPRPRPRFQPRP | 0.129 |
| RRIRERPPRLPRPRPRPADIPRP | 0.033 |
| RRIRLRPPRLPRPRPRPLGMPRP | 0.0609 |
| RRIRGRPPRLPRPRPRPGEYPRP | 0.3 |
| RRIRVRPPRLPRPRPRPCYNPRP | -0.11 |
| RRIRLRPPRLPRPRPRPHMTPRP | -0.466 |
| RRIRQRPPRLPRPRPRPFWEPRP | -0.0669 |
| RRIRYRPPRLPRPRPRPAVLPRP | 0.0447 |
